Results as given in PMC8514580, “Insight into the interaction between the RNA helicase CGH-1 and EDC-3 and its implications” (Scientific Reports, 2021).

Legend:
Assay in all cases: ITC; ligand (peptide or CAR-1 fragment, 0.5 mM) injected into CGH-1_(248-420) or mutant (0.05 mM) in the cell; 20 °C; Buffer B (20 mM Tris-HCl pH 7.5, 150 mM NaCl); one-binding-site model
Conditions in all cases: both partners purified
CGH-1_(248–420) Q266A = target: T1, CGH-1_(248–420) Q266A (C. elegans, UniProt Q95YF3 248-420, Q266A)
T1 construct: Mutant of m1 made with the MutanBEST kit; source: E. coli Gold (DE3), purified (Ni-chelating resin, SEC Superdex 75)
T1 sequence (looked up): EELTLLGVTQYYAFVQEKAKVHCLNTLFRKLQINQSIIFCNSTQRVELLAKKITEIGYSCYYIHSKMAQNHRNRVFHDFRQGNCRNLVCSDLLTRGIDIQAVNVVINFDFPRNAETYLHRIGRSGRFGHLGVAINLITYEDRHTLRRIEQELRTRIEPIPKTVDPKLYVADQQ

[1] = target: T2, CGH-1_(248–420) wild type (CGH-1 RecA2 domain) (C. elegans, UniProt Q95YF3 248-420)
T2 construct: Cloned into NdeI/XhoI of a modified pET-28a in which the thrombin cleavage site was removed; also called CGH-1_248-420^WT; source: E. coli Gold (DE3), purified (Ni-chelating resin, SEC Superdex 75)
T2 sequence (looked up): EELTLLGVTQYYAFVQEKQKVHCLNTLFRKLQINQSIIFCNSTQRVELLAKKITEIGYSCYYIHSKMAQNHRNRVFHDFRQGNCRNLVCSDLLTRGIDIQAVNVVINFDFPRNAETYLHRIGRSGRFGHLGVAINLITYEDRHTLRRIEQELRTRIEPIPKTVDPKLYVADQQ

CGH-1_(248–420) Y386A = target: T3, CGH-1_(248–420) Y386A (C. elegans, UniProt Q95YF3 248-420, Y386A)
T3 construct: Mutant of m1 made with the MutanBEST kit; source: E. coli Gold (DE3), purified (Ni-chelating resin, SEC Superdex 75)
T3 sequence (looked up): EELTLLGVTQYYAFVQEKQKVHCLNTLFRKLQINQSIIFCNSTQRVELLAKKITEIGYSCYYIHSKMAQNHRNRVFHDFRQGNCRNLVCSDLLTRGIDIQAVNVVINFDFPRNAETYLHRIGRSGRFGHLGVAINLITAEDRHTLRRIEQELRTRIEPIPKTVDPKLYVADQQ

CGH-1_(248–420) R393A = target: T4, CGH-1_(248–420) R393A (C. elegans, UniProt Q95YF3 248-420, R393A)
T4 construct: Mutant of m1 made with the MutanBEST kit; source: E. coli Gold (DE3), purified (Ni-chelating resin, SEC Superdex 75)
T4 sequence (looked up): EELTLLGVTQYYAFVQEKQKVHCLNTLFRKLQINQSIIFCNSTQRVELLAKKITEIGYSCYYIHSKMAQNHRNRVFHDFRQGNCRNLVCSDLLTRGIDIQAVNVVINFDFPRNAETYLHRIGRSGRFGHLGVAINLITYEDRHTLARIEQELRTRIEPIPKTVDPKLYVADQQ

CGH-1_(248–420) K277E = target: T5, CGH-1_(248–420) K277E (C. elegans, UniProt Q95YF3 248-420, K277E)
T5 construct: Mutant of m1 made with the MutanBEST kit; source: E. coli Gold (DE3), purified (Ni-chelating resin, SEC Superdex 75)
T5 sequence (looked up): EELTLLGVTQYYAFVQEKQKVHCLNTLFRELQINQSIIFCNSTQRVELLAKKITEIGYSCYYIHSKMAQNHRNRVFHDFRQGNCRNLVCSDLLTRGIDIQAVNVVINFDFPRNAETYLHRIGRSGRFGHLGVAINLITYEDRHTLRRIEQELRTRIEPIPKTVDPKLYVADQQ

CGH-1_(248–420) V262A = target: T6, CGH-1_(248–420) V262A (C. elegans, UniProt Q95YF3 248-420, V262A)
T6 construct: Mutant of m1 made with the MutanBEST kit; source: E. coli Gold (DE3), purified (Ni-chelating resin, SEC Superdex 75)
T6 sequence (looked up): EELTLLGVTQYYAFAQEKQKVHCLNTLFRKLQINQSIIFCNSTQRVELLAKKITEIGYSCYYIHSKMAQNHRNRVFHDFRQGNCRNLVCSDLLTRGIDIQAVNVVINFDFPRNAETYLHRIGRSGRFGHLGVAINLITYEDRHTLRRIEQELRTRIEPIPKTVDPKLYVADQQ

[2] = target: T7, CGH-1_(248–420) 4A mutant (His269, Cys270, Thr273 and Leu274 to Ala) (C. elegans, UniProt Q95YF3 248-420, His269 to Ala | Cys270 to Ala | Thr273 to Ala | Leu274 to Ala)
T7 construct: Mutant of m1 made with the MutanBEST kit; also called four-alanine mutant; source: E. coli Gold (DE3), purified (Ni-chelating resin, SEC Superdex 75)
T7 sequence (looked up): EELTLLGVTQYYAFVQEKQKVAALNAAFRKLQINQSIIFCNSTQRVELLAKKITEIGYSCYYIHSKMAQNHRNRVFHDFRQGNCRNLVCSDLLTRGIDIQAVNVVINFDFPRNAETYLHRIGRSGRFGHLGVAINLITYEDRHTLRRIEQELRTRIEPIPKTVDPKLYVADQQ

B1: PATR-1 peptide (CePATR-1_(30–67)) (peptide)
peptide: SDEDHNIFDDEFDAANDETFGGGLDNIGENAELENYAT
notes: PATR-1 (Pat1 ortholog), C. elegans, residues 30-67; Printed with free NH2 and COOH ends; also called PATR1_30-67^WT; CePATR-1 peptide; source: synthetic peptide (GL Biochem, Shanghai)
- Kd (CGH-1_(248–420) Q266A): 2.97 ± 0.29 µM
- dH (CGH-1_(248–420) Q266A): -16.6 ± 0.41 kcal/mol
- stoichiometry N (CGH-1_(248–420) Q266A): 0.86
- Kd [1]: 2.13 ± 0.38 µM
- dH [1]: -15.8 ± 0.62 kcal/mol
- stoichiometry N [1]: 0.88
- Kd (CGH-1_(248–420) Y386A): 4.19 ± 0.58 µM
- dH (CGH-1_(248–420) Y386A): -14.2 ± 0.56 kcal/mol
- stoichiometry N (CGH-1_(248–420) Y386A): 0.85
- Kd (CGH-1_(248–420) R393A): 4.22 ± 0.62 µM
- dH (CGH-1_(248–420) R393A): -16.6 ± 0.69 kcal/mol
- stoichiometry N (CGH-1_(248–420) R393A): 0.8
- Kd (CGH-1_(248–420) K277E): 8.29 ± 0.99 µM
- dH (CGH-1_(248–420) K277E): -19.6 ± 0.95 kcal/mol
- stoichiometry N (CGH-1_(248–420) K277E): 1.07
- Kd (CGH-1_(248–420) V262A): 4.94 ± 0.79 µM
- dH (CGH-1_(248–420) V262A): -17.3 ± 0.82 kcal/mol
- stoichiometry N (CGH-1_(248–420) V262A): 0.84
- Kd [2]: 2.06 ± 0.27 µM
- dH [2]: -15.4 ± 0.44 kcal/mol
- stoichiometry N [2]: 0.79
